From US20180015144A1, “AGONISTS OF THE NOGO-A S1PR PATHWAY FOR THE TREATMENT OF GLIOBLASTOMA” (UNIVERSITAT ZURICH, priority 2015, published 2018)

Experiments:
GBM MVEC = test: Time-lapse imaging of lamellipodia and filopodia retraction on nanopillars, soluble Nogo-A proteins; assay type: cell-based, human; conditions: soluble protein 1 μM, over 30 min to 1 h
Procedure: (§1) For time-lapse- and force generation experiments, Vybrant/Dil (Invitrogen, 1:200)-labeled GBM MVEC (10^4 cells ml^−1) were added onto the nanopillar structures. The imaging process was started 1 h after seeding GBM MVEC on nanopillars. To calculate the traction force exerted by GBM MVEC on the nanopillar surface, the deflection of the nanopillar tip was imaged with confocal microscopy using a Leica confocal microscope SP5 with a63x, oil immersion, NA1.43 objective.
(§2) During image acquisition, GBM MVEC were kept at 37° C. and 10% CO2. Following laser wavelengths were used to acquire images of nanopillar arrays and Di-labeled cells: 488 nm (nanopillar structures) and 546 nm (Dil).
To quantitatively address the acute effects of soluble Nogo-A proteins on GBM MVEC retraction, Dil-labeled endothelial cells on nanopillars coated with 25 μg*ml^−1 human Fibronectin were treated 30 min after cell seeding with soluble Nogo-A Delta 20 and Nogo-A Delta 21 at 1 μM. Single GBM MVEC were then imaged for a total time of 1.5 h, with a scanning ratio of 30 s per frame. The nanopillar displacements were recorded as sequence images when the GBM MVEC applied forces on the nanopillar surface. For each condition, at least three individual GBM MVEC were analyzed. […] Finally, corresponding traction forces were calculated using the formula F=k*x, where k represents the spring constant of the nanopillars, 78.76 nN/μm.

GBM MVEC filopodia = test: Peak traction forces of filopodia on nanopillars, soluble Nogo-A proteins; assay type: cell-based, human; conditions: soluble protein 1 μM
Procedure: as §1, §2
To quantitatively address the acute effects of soluble Nogo-A proteins on GBM MVEC retraction, Dil-labeled endothelial cells on nanopillars coated with 25 μg*ml^−1 human Fibronectin were treated 30 min after cell seeding with soluble Nogo-A Delta 20 and Nogo-A Delta 21 at 1 μM. Single GBM MVEC were then imaged for a total time of 1.5 h, with a scanning ratio of 30 s per frame. The nanopillar displacements were recorded as sequence images when the GBM MVEC applied forces on the nanopillar surface. For each condition, at least three individual GBM MVEC were analyzed. To address the role of Nogo-A receptors, endothelial cells were cultured for 30 min before incubating the cells for another 30 min with the pharmacological blocker of S1PR2 (JTE-013, 10 μM) (Tocris Bioscience), with the pharmacological blocker of S1PR1 and S1PR3 (VPC 23019, 10 μM) (Tocris Bioscience), or with the pharmacological blocker of S1PR1, 3, 4, and 5 (FTY720, 10 μM) (Tocris Bioscience). Then soluble Nogo-A Delta 20 (at 1 μM) or Nogo-A Delta 21 (at 1 μM) was added and lamellipodia and filopodia were imaged for 1h. The displacements (x) of the nanopillar tips induced by whole endothelial cells (for experiments with coated Nogo-A proteins) or by single endothelial filopodia (for experiments with soluble Nogo-A proteins) were measured using the program Diatrack (Powerful Particle Tracking, Semasopht). Finally, corresponding traction forces were calculated using the formula F=k*x, where k represents the spring constant of the nanopillars, 78.76 nN/μm.

VEGFR2 = VEGFR2 phosphorylation at Tyr1175 and total VEGFR2 in HUVECs, western blot; assay type: cell-based; conditions: 15 min, protein 1 μM
Procedure: For the different treatment conditions HUVECs were seeded on 8 well dishes (LabTek chamber slides, immunofluorescence) or 6 well dishes (western blot) and left for 2 to 3 days until the culture was confluent. After a 4 h starvation of the cells in EBM-2 medium (Lonza, Switzerland), the cells were treated with Nogo-A Delta 20 (1 μM), Nogo-A Delta 20 (1 μM) and VEGF-A ([…]), Nogo-A Delta 21 (1 μM), Nogo-A Delta 21 (1 μM) and VEGF ([…]), or VEGF-A alone ([…]) in EBM-2 medium, respectively. The cells were either fixed in 4% formaldehyde for 15 min at room temperature or lysed in RIPA buffer. After fixation, HUVECs were stained with anti-phosphoVEGFR2 antibody (pTyr1175, #2478, Cell Signaling), F-actin (phalloidin Alexa Fluor 633, Molecular Probes) and DAPI. The same antibodies were used to detect VEGFR2 and phosphoVEGFR2 in western blot.

[1] = system: endothelial tip cells within the glioblastoma; test: Injection by osmotic minipumps in a mouse model of glioblastoma, endothelial tip cell count; assay type: in vivo; conditions: 20 days post-injection, versus scrambled Nogo-A Delta 20
Source text: Coronal brain sections (40 μm) of glioblastoma-bearing mice (20 days post-injection, 20D-PI) were perfused with FITC Lectin (green) to visualize perfused blood vessels and stained for Endomucin to visualize blood vessels including endothelial tip cells (red) and the general nuclear marker DAPI (blue). The boxed areas are enlarged in d-f and in g-i. (a-f). Endomucin^+ endothelial tip cells (red, arrows) and FITC Lectin^+ established blood vessel (green) (d-f) are shown within the glioblastoma. Endomucin seems to be specific for blood vessels within the glioblastoma (red) (as compared to Endomucin^− blood vessels in the surrounding normal brain; green). (d,f,g,i) Note the nicely visualized Endomucin^+ endothelial tip cells including filopodial protrusions (red, arrows) (g) within the glioblastoma. (j) Injection of Nogo-A Delta 20 decreases the mean number of endothelial tip cells within the glioblastoma, showing its inhibitory effect on mouse glioblastoma blood vessels.
GL261 glioma cell implantation into adult (two months old) C57BL/6 animals was performed as previously described (Aulwurm et al., Int J Cancer 2006;118, 1728-1735; Biollaz et al., Eur J Immunol 2009;39, 1323-1333j). Briefly, a total of 2×10^4 GL261 cells were inoculated through a borehole placed 1 mm lateral and 2 mm dorsal to the bregma at 3 mm depth using a Hamilton syringe. […]

B1: Nogo-A Delta 20: Nogo-A specific inhibitory domain, 182 aa; human aa 567-748 (SEQ ID NO 002), rat aa 544-725 (SEQ ID NO 001) (protein, UniProt Q9NQC3 567-748, looked up, fragment)
chain: TGTKIAYETKMDLVQTSEVMQESLYPAAQLCPSFEESEATPSPVLPDIVMEAPLNSAVPSAGASVIQPSSSPLEASSVNYESIKHEPENPPPYEEAMSVSLKKVSGIKEEIKEPENINAALQETEAPYISIACDLIKETKLSAEPAPDFSDYSEMAKVEQPVPDHSELVEDSSPDSEPVDLF
retraction of GBM MVEC lamellipodia and filopodia (GBM MVEC): retraction | peak traction forces of filopodia on the underlying nanopillars (GBM MVEC filopodia): ~10 nN | amount of phosphoVEGFR2 protein (VEGFR2; with VEGF-A): reduced | total amount of VEGFR2 protein (VEGFR2; with VEGF-A): reduced | VEGFR2 phosphorylation, protein alone (VEGFR2; without VEGF-A): did not induce | mean number of endothelial tip cells within the glioblastoma [1]: decreases
